{"source": "the Immune Epitope Database (IEDB)", "key": {"HLA-B*07:02": {"target": "HLA-B*07:02", "assay": "IEDB peptide-MHC binding, purified MHC/competitive/radioactivity; filed as Kd, often an IC50 or EC50 that approximates it; ≥ and ≤ were set here for values at or beyond the usual limits of such assays"}, "HLA-B*35:01": {"target": "HLA-B*35:01", "assay": "IEDB peptide-MHC binding, purified MHC/competitive/radioactivity; filed as Kd, often an IC50 or EC50 that approximates it; ≥ and ≤ were set here for values at or beyond the usual limits of such assays"}, "HLA-B*51:01": {"target": "HLA-B*51:01", "assay": "IEDB peptide-MHC binding, purified MHC/competitive/radioactivity; filed as Kd, often an IC50 or EC50 that approximates it; ≥ and ≤ were set here for values at or beyond the usual limits of such assays"}, "HLA-B*53:01": {"target": "HLA-B*53:01", "assay": "IEDB peptide-MHC binding, purified MHC/competitive/radioactivity; filed as Kd, often an IC50 or EC50 that approximates it; ≥ and ≤ were set here for values at or beyond the usual limits of such assays"}, "HLA-B*54:01": {"target": "HLA-B*54:01", "assay": "IEDB peptide-MHC binding, purified MHC/competitive/radioactivity; filed as Kd, often an IC50 or EC50 that approximates it; ≥ and ≤ were set here for values at or beyond the usual limits of such assays"}, "HLA-A*03:01": {"target": "HLA-A*03:01", "assay": "IEDB peptide-MHC binding, purified MHC/competitive/fluorescence; filed as Kd, often an IC50 or EC50 that approximates it; ≥ and ≤ were set here for values at or beyond the usual limits of such assays"}, "HLA-B*15:01 [1]": {"target": "HLA-B*15:01", "assay": "IEDB peptide-MHC binding, purified MHC/competitive/fluorescence; filed as Kd, often an IC50 or EC50 that approximates it; ≥ and ≤ were set here for values at or beyond the usual limits of such assays", "conditions": "source organism: Escherichia coli F11"}, "HLA-B*08:01": {"target": "HLA-B*08:01", "assay": "IEDB peptide-MHC binding, purified MHC/competitive/radioactivity; filed as Kd, often an IC50 or EC50 that approximates it; ≥ and ≤ were set here for values at or beyond the usual limits of such assays"}, "HLA-A*02:01 [2]": {"target": "HLA-A*02:01", "assay": "IEDB peptide-MHC binding, purified MHC/competitive/radioactivity; filed as Kd, often an IC50 or EC50 that approximates it; ≥ and ≤ were set here for values at or beyond the usual limits of such assays"}, "HLA-A*11:01": {"target": "HLA-A*11:01", "assay": "IEDB peptide-MHC binding, purified MHC/competitive/fluorescence; ≥ and ≤ were set here for values at or beyond the usual limits of such assays", "conditions": "source organism: Vaccinia virus WR"}, "HLA-A*02:01 [3]": {"target": "HLA-A*02:01", "assay": "IEDB peptide-MHC binding, purified MHC/direct/fluorescence; filed as Kd, often an IC50 or EC50 that approximates it; ≥ and ≤ were set here for values at or beyond the usual limits of such assays", "conditions": "source organism: Vaccinia virus Copenhagen"}, "HLA-B*15:01 [4]": {"target": "HLA-B*15:01", "assay": "IEDB peptide-MHC binding, purified MHC/direct/fluorescence; filed as Kd, often an IC50 or EC50 that approximates it; ≥ and ≤ were set here for values at or beyond the usual limits of such assays", "conditions": "source organism: Vaccinia virus Copenhagen"}, "HLA-A*02:02": {"target": "HLA-A*02:02", "assay": "IEDB peptide-MHC binding, purified MHC/competitive/radioactivity; filed as Kd, often an IC50 or EC50 that approximates it; ≥ and ≤ were set here for values at or beyond the usual limits of such assays", "conditions": "source organism: Trypanosoma cruzi"}, "HLA-A*02:03": {"target": "HLA-A*02:03", "assay": "IEDB peptide-MHC binding, purified MHC/competitive/radioactivity; filed as Kd, often an IC50 or EC50 that approximates it; ≥ and ≤ were set here for values at or beyond the usual limits of such assays", "conditions": "source organism: Trypanosoma cruzi"}, "HLA-A*02:06": {"target": "HLA-A*02:06", "assay": "IEDB peptide-MHC binding, purified MHC/competitive/radioactivity; filed as Kd, often an IC50 or EC50 that approximates it; ≥ and ≤ were set here for values at or beyond the usual limits of such assays", "conditions": "source organism: Trypanosoma cruzi"}, "HLA-A*68:02": {"target": "HLA-A*68:02", "assay": "IEDB peptide-MHC binding, purified MHC/competitive/radioactivity; filed as Kd, often an IC50 or EC50 that approximates it; ≥ and ≤ were set here for values at or beyond the usual limits of such assays", "conditions": "source organism: Trypanosoma cruzi"}, "[5]": {"conditions": "source organism: Vaccinia virus WR"}, "[6]": {"conditions": "source organism: Triticum aestivum"}, "[7]": {"conditions": "source organism: SARS coronavirus Tor2"}, "[8]": {"conditions": "source organism: Dengue virus 3 Martinique/1243/1999"}}, "data": [{"sequence": "FPQHVITKDV", "values": [{"measurement": "Kd", "setting": "HLA-B*07:02; [5]", "result": 57.3, "unit": "nM"}, {"measurement": "Kd", "setting": "HLA-B*35:01; [5]", "result": 153, "unit": "nM"}, {"measurement": "Kd", "setting": "HLA-B*51:01; [5]", "result": 66.2, "unit": "nM"}, {"measurement": "Kd", "setting": "HLA-B*53:01; [5]", "result": 16.2, "unit": "nM"}, {"measurement": "Kd", "setting": "HLA-B*54:01; [5]", "result": 0.46, "unit": "nM"}]}, {"sequence": "FPQPQLPY", "values": [{"measurement": "Kd", "setting": "HLA-B*07:02; [6]", "result": 14100, "unit": "nM"}, {"measurement": "Kd", "setting": "HLA-B*35:01; [6]", "result": 244, "unit": "nM"}, {"measurement": "Kd", "setting": "HLA-B*51:01; [6]", "result": 20.4, "unit": "nM"}, {"measurement": "Kd", "setting": "HLA-B*53:01; [6]", "result": 1040, "unit": "nM"}, {"measurement": "Kd", "setting": "HLA-B*54:01; [6]", "result": "≥ 87700", "unit": "nM"}]}, {"sequence": "GIAACLMTY", "values": [{"measurement": "Kd", "setting": "HLA-A*03:01; source organism: Escherichia coli F11", "result": "≥ 20000", "unit": "nM"}, {"measurement": "Kd", "setting": "HLA-B*15:01 [1]", "result": 3000, "unit": "nM"}]}, {"sequence": "GPKVKYLYF", "values": [{"measurement": "Kd", "setting": "HLA-B*07:02; [7]", "result": 15800, "unit": "nM"}, {"measurement": "Kd", "setting": "HLA-B*35:01; [7]", "result": "≥ 52000", "unit": "nM"}, {"measurement": "Kd", "setting": "HLA-B*51:01; [7]", "result": 13600, "unit": "nM"}, {"measurement": "Kd", "setting": "HLA-B*53:01; [7]", "result": "≥ 41000", "unit": "nM"}, {"measurement": "Kd", "setting": "HLA-B*54:01; [7]", "result": 10400, "unit": "nM"}]}, {"sequence": "HALNELPESL", "values": [{"measurement": "Kd", "setting": "HLA-B*08:01; source organism: Dengue virus 4 Philippines/H241/1956", "result": 3740, "unit": "nM"}]}, {"sequence": "IKLTVVVGDI", "values": [{"measurement": "Kd", "setting": "HLA-B*08:01; [8]", "result": 1050, "unit": "nM"}]}, {"sequence": "IKRRLRTLIL", "values": [{"measurement": "Kd", "setting": "HLA-B*08:01; [8]", "result": 185, "unit": "nM"}]}, {"sequence": "ILIEGIFFV", "values": [{"measurement": "Kd", "setting": "HLA-A*02:01 [2]; source organism: Human alphaherpesvirus 3", "result": 0.03, "unit": "nM"}]}, {"sequence": "IRANNNRLP", "values": [{"measurement": "IC50", "setting": "HLA-A*11:01", "result": "≥ 208000", "unit": "nM"}]}, {"sequence": "KDAWLSLPK", "values": [{"measurement": "Kd", "setting": "HLA-A*03:01; source organism: Vibrio cholerae", "result": "≥ 20000", "unit": "nM"}]}, {"sequence": "KFFPSSSYRR", "values": [{"measurement": "Kd", "setting": "HLA-A*03:01; source organism: Influenza A virus (A/Fort Monmouth/1/1947-mouse adapted(H1N1))", "result": 4320, "unit": "nM"}]}, {"sequence": "LFMSHVKSV", "values": [{"measurement": "Kd", "setting": "HLA-A*02:01 [3]", "result": 1750, "unit": "nM"}, {"measurement": "Kd", "setting": "HLA-B*15:01 [4]", "result": 15200, "unit": "nM"}, {"measurement": "Kd", "setting": "HLA-B*08:01; [5]", "result": 3.07, "unit": "nM"}]}, {"sequence": "LLGLWGFATA", "values": [{"measurement": "Kd", "setting": "HLA-A*02:01 [2]; source organism: Trypanosoma cruzi", "result": 65.1, "unit": "nM"}, {"measurement": "Kd", "setting": "HLA-A*02:02", "result": 50.5, "unit": "nM"}, {"measurement": "Kd", "setting": "HLA-A*02:03", "result": 1.89, "unit": "nM"}, {"measurement": "Kd", "setting": "HLA-A*02:06", "result": 61.3, "unit": "nM"}, {"measurement": "Kd", "setting": "HLA-A*68:02", "result": "≥ 49600", "unit": "nM"}]}]}
